{"source": "patent US8003609B2", "about": "“Method for ameliorating pain by modification of NMDA receptors through inhibition of Src” (The Hospital for Sick Children, priority 2004, dated 2011)", "molecules": {"B1": {"name": "ND2.3-GST: GST fusion protein containing amino acids 1-188 of human ND2 (SEQ ID NO:13) (protein)", "chain": "MNPLAQPVIYSTIFAGTLITALSSHWFFTWVGLEMNMLAFIPVLTKKMNPRSTEAAIKYFLTQATASMILLMAILFNNMLSGQWTMTNTTNQYSSLMIMMAMAMKLGMAPFHFWVPEVTQGTPLTSGLLLLTWQKLAPISIMYQISPSLNVSLLLTLSILSIMAGSWGGLNQTQLRKILAYSSITHMG", "modifications": "left off: a dimerising Fc or GST"}, "B2": {"name": "ND2.1-GST: GST fusion protein containing amino acids 239-321 of human ND2 (SEQ ID NO:7) (protein)", "chain": "WLTPLIPSTLLSLGGLPPLTGFLPKWTIIEEFTKNNSLIIPTIMATITLLNLYFYLRLIYSTSITLLPMSNNVKMKWQFE", "modifications": "left off: a dimerising Fc or GST"}}, "key": {"ND2.1-GST": {"biological_target": "T1, ND2.1-GST (Homo sapiens, UniProt P03891, A265T)", "T1 construct": "made in house; host or cells: bacteria", "assay": "in vitro binding of biotinylated Src peptides to ND2.1-GST (blot / dot blot)", "settings": "biotinylated peptide, streptavidin-HRP detection", "experimental": "(§1) Src, Fyn, and ND2 recombinant proteins were prepared. The cDNAs encoding the SH3 and SH2 domains of mouse n-Src and Fyn were PCR subcloned, ligated in frame into pGEX4T-1 (Amersham Pharmacia Biotech, Baie d'Urfé, Québec), and sequenced. These plasmids, as well as plasmids encoding the unique domains of Src and Fyn in pGEX2T'6, were transformed into BL21 bacteria, and GST fusion proteins were purified by glutathione affinity chromatography. To create the ND2.1, ND2.2, and ND2.3 GST fusion proteins, cDNAs encoding amino acids 239-321 (ND2.1-GST; SEQ ID NO:7), amino acids 189-238 (ND2.2-GST; SEQ ID NO:11), and amino acids 1-188 (ND2.3-GST; SEQ ID NO:13) of human ND2 were PCR subcloned and ligated into pGEX4T-1 (the nucleotide sequence encoding ND2 is SEQ ID NO:8 and the amino acid sequence is SEQ ID NO:9; the nucleotide sequences encoding ND2.1; ND2.2 and ND2.3 are SEQ ID NOS:6, 10 and 12, respectively). Using PCR-based single nucleotide mutagenesis, all cDNAs encoding ND2 fusion proteins were corrected for differences between mitochondrial and nuclear codons to prevent premature translation termination and protein truncation. All constructs were then confirmed by sequencing. The plasmids were transformed into bacteria, and GST fusion proteins were purified by glutathione affinity chromatography.\nSrc40-58 and scrambled Src peptides were biotinylated by incubating with Sulfo-NHS-Biotin (Pierce Chemical Co., Rockford, Ill.) for 30 minutes at room temperature (SEQ ID NO:4, Src protein). […] Bound probe was then detected on film using an ECL kit.\nTo detect the binding of ND2.1-GST with Src peptides, the ND2.1-GST fusion protein was purified on glutathione SEPHAROSE. […] Bound probe was then detected on film using an ECL kit (Amersham Pharmacia Biotech, Baie d'Urfé, Québec).\nSrc40-58, Src40-49, Src49-58, scrambled Src40-58, TAT-Src40-49, and scrambled TAT-Src40-49 peptides were biotinylated by incubating with Sulfo-NHS-Biotin (Pierce Chemical Co., Rockford, Ill.) for 30 minutes at room temperature. […] Bound probe was then detected on film using an ECL kit."}, "NMDAR": {"tested_on": "NMDAR", "assay": "mEPSC whole cell recordings in cultured hippocampal neurons, NMDAR component", "format": "cell-based, rat", "experimental": "(§2) Fetal rat hippocampal neurons were prepared, cultured, and used for electrophysiological recordings 12-17 days after plating. Methods for whole cell recordings are described in Pelkey et al. (Neuron 34:127-138 2002).\n(§3) In contrast, in control experiments administering EPQ(pY)EEIPIA (SEQ ID NO:5) increased the NMDAR component of mEPSCs by 172±28% and application of Src40-58 decreased the NMDAR component to 56±4% (FIGS. 5D-F). […] Composite traces are shown in black, the NMDAR component in dark grey, and the AMPAR component in light grey. Scale bars are 50 ms/10 pA. […] NMDA component data were calculated as Q20′/Q2′, and AMPA component data were calculated as A20′/A2′. […] An * indicates a significant difference, Student's t-test, p<0.05. Taking our results together, it is concluded that Src-dependent regulation of the activity of NMDARs depends on expression of ND2 through its anchoring of Src to the NMDAR complex."}, "AMPA receptor": {"tested_on": "AMPA receptor", "assay": "mEPSC whole cell recordings in cultured hippocampal neurons, AMPA receptor component", "format": "cell-based, rat", "settings": "under the recording conditions used", "experimental": "as §2, §3"}, "Src unique domain": {"biological_target": "T2, Src unique domain (Mus musculus, UniProt P05480)", "T2 construct": "amino acids 4-82 (the Src unique domain); GST (N); made in house; host or cells: BL21 bacteria", "assay": "blot of ND2-GST fusion proteins probed with biotinylated Src unique domain", "format": "binding", "settings": "GST fusion protein", "experimental": "as §1\n(§4) Detailed protocols for in vitro binding assays, pull down assays, immunoblotting, and co-immunoprecipitation techniques can be found in Pelkey et al. (Neuron 34:127-138 2002).\nAs yeast two-hybrid screening may reveal false positive protein-protein interactions, the interaction between Src and ND2 was observed using an independent methodological approach. Direct binding in vitro between ND2 and Src was tested using recombinant proteins. A series of GST fusion proteins comprised of portions of ND2 that spanned the overlapping region found with the yeast two-hybrid screen were made (FIG. 1A). […]"}, "[1]": {"biological_target": "T3, association of Src with the NMDAR complexes (Rattus norvegicus, UniProt P11662)", "T3 construct": "from tissue; host or cells: rat brain post-synaptic density fraction", "T3 sequence (P11662 whole entry, other chains not shown)": "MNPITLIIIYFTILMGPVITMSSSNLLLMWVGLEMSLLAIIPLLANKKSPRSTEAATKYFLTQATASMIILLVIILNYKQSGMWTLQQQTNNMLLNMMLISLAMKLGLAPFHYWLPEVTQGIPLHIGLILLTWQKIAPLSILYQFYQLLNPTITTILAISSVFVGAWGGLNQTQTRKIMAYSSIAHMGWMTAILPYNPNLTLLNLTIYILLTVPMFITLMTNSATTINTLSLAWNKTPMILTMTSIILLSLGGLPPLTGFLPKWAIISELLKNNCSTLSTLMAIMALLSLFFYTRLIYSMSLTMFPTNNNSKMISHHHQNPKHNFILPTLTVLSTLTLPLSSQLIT", "assay": "co-immunoprecipitation of Src with NMDARs from PSD proteins", "format": "binding", "experimental": "as §4\n(§5) Post-synaptic density proteins (Kennedy et al. Proceedings of the National Academy of Science USA 80:7357-7361 1983) were prepared from rat brain as described in detail (Pelkey et al. Neuron 34:127-138 2002). Cellular fractionation of rat brain tissue into nuclear, heavy mitochondrial, light mitochondrial, microsomal, and cytosolic fractions was performed by differential centrifugation of tissue homogenate in 0.25 M sucrose/10 mM HEPES-NaOH, 1 mM EDTA, pH 7.4 with 2 μg each of aprotinin, pepstatin A, and leupeptin (Sigma, St. Louis, Mo.) at 4° C. Nuclei were pelleted by centrifugation at 1 000 g for 10 minutes, the supernatant was removed and spun at 3 000 g for 10 minutes to obtain a heavy mitochondrial pellet. The supernatant was removed and spun at 16 000 g for 15 minutes to obtain a light mitochondrial pellet. The supernatant was removed and spun at 100 000 g for 1 hour to obtain a microsomal pellet and the cytosolic fraction. All pellets were then resuspended in RIPA buffer (50 mM Tris pH 7.6, 150 mM NaCl, 1 mM EDTA, 1% NP-40, 2.5 mg/ml NaDOC, 1 mM Na3VO4 1 mM PMSF, and 2 μg/ml each of protease inhibitors). The light mitochondrial fraction was used in subsequent experiments. […]"}, "[2]": {"tested_on": "SH2 or SH3 domains of Src", "assay": "blot of ND2.1-GST probed with biotinylated SH2 and SH3 domains of Src", "format": "binding, mouse", "experimental": "(§6) Src, Fyn, and ND2 recombinant proteins were prepared. The cDNAs encoding the SH3 and SH2 domains of mouse n-Src and Fyn were PCR subcloned, ligated in frame into pGEX4T-1 (Amersham Pharmacia Biotech, Baie d'Urfé, Québec), and sequenced. These plasmids, as well as plasmids encoding the unique domains of Src and Fyn in pGEX2T'6, were transformed into BL21 bacteria, and GST fusion proteins were purified by glutathione affinity chromatography. To create the ND2.1, ND2.2, and ND2.3 GST fusion proteins, cDNAs encoding amino acids 239-321 (ND2.1-GST; SEQ ID NO:7), amino acids 189-238 (ND2.2-GST; SEQ ID NO:11), and amino acids 1-188 (ND2.3-GST; SEQ ID NO:13) of human ND2 were PCR subcloned and ligated into pGEX4T-1 (the nucleotide sequence encoding ND2 is SEQ ID NO:8 and the amino acid sequence is SEQ ID NO:9; the nucleotide sequences encoding ND2.1; ND2.2 and ND2.3 are SEQ ID NOS:6, 10 and 12, respectively). Using PCR-based single nucleotide mutagenesis, all cDNAs encoding ND2 fusion proteins were corrected for differences between mitochondrial and nuclear codons to prevent premature translation termination and protein truncation. All constructs were then confirmed by sequencing. The plasmids were transformed into bacteria, and GST fusion proteins were purified by glutathione affinity chromatography. […]"}, "Fyn unique domain": {"biological_target": "T4, Fyn unique domain (Mus musculus, UniProt P39688)", "T4 construct": "plasmids encoding the unique domains of Src and Fyn in pGEX2T'6; GST (N); made in house; host or cells: BL21 bacteria", "T4 sequence (P39688 1-81 limits assumed)": "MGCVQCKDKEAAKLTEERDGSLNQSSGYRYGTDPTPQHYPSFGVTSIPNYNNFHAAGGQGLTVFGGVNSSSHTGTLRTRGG", "assay": "blot of ND2.1-GST probed with biotinylated Fyn unique domain", "format": "binding", "experimental": "as §6"}, "Src [3]": {"biological_target": "T5, Src (Rattus norvegicus, UniProt Q9WUD9)", "T5 construct": "from tissue; host or cells: rat brain post-synaptic density fraction", "assay": "pull down of Src from PSD preparations by ND2-GST fusion proteins", "format": "binding", "experimental": "as §4, §5"}, "Src [4]": {"biological_target": "Src (Homo sapiens, UniProt P12931)", "assay": "catalytic activity of Src in vitro", "format": "biochemical", "settings": "not illustrated", "source_text": "As ND2 alone is not catalytically active (J. E. Walker Quarterly Reviews of Biophysics 25(3):253-324 1992; Sazanov et al. Journal of Molecular Biology 302:455-464 2000; Sazanove et al. Biochemistry 39:7229-7235 2000), its functional role in the NMDAR complex was investigated. […] Thus, it is unlikely that ND2 is a target of Src or a regulator of Src kinase activity."}}, "note": "Square brackets hold non-standard residues; d marks the D form. Ends that are not written are not given here. pY = N[C@@H](Cc1ccc(OP(=O)(O)O)cc1)C(=O)O"}
{"molecule": "Src50-58: Src49-58: peptide comprising amino acid residues 49-58 of SEQ ID NO:4; printed Src50-58 in the summary (PSAAFAPAAA; listed as Homo sapiens)", "values": [{"measurement": "binding to ND2.1-GST", "setting": "ND2.1-GST", "value": "did not interact"}]}
{"molecule": "EPQ(pY)EEIPIA (EPQ[pY]EEIPIA)", "values": [{"measurement": "NMDAR component of mEPSCs, increased by", "setting": "NMDAR; control experiments, cultured hippocampal neurons", "value": "172±28", "unit": "%"}, {"measurement": "NMDAR component of the mEPSCs", "setting": "NMDAR; neurons treated with chloramphenicol for 48 hours", "value": "not affected"}, {"measurement": "AMPA receptor component of the mEPSCs", "setting": "AMPA receptor", "value": "neither of these reagents affected"}]}
{"molecule": "ND2.2-GST: GST fusion protein containing amino acids 189-238 of human ND2 (SEQ ID NO:11) (WMMAVLPYNPNMTILNLTIYIILTTTAFLLLNLNSSTTTLLLSRTWNKLT; also: GST fusion protein)", "values": [{"measurement": "binding to the unique domain of Src", "setting": "Src unique domain", "value": "did not bind"}]}
{"molecule": "Src40-49: peptide, 10 amino acid residues, corresponding approximately to amino acid positions 40-49 of the Src unique domain (SEQ ID NO:1) (KPASADGHR; listed as Homo sapiens)", "values": [{"measurement": "binding to ND2.1-GST", "setting": "ND2.1-GST", "value": "interacts with ND2"}]}
{"molecule": "B1", "values": [{"measurement": "binding to the unique domain of Src", "setting": "Src unique domain", "value": "did not bind"}]}
{"molecule": "B2", "values": [{"measurement": "co-immunoprecipitation of Src with NMDARs", "setting": "[1]", "value": "suppressed"}, {"measurement": "binding to the unique domain of Src", "setting": "Src unique domain", "value": "bound"}, {"measurement": "binding to the SH2 or SH3 domains of Src", "setting": "[2]", "value": "did not bind"}, {"measurement": "interaction in vitro with the Fyn unique domain", "setting": "Fyn unique domain", "value": "did not interact"}, {"measurement": "pulls Src from PSD preparations", "setting": "Src [3]", "value": "pulls Src"}, {"measurement": "catalytic activity of Src in vitro", "setting": "Src [4]", "value": "did not alter"}]}
